# Laboratory results reported in patent publication US20130225479A1, “Methods and Compositions for Treating Inflammation” (The University of North Carolina at Chapel Hill, priority 2010, published 2013).
# B1: GST-Orf63 (other)
# chain: MDGTDALEKLTKGLSGGGGSLHQTKLLMEFQLRGLPVPALLNSSTTEQFLNTVAQLPTDLSKFIRDYRVFALVRAAYFLEPPSSIDPLEAARALGRLVDILSSQPPQNTAPAQPPTSDDTLNNCTLLKLLAHYADQIAGFKTPALPPVPPGIIGLFTCVEQMYHACFQKYWAAALPPMWILTYDPPTSPLQDWLIVAYGNKEGLLLPSGIPSEEVLAKTLVTEHHELFVSRSNSTETAVTMPVSKERALAIYRVFAKGEVVAENTPILAFTDVELSTLKPHYLFIYDFIIEALCKSYTYSCTQARLESFLSRGIDFMTDLGQYLDTATSGKQQLTHSQIKEIKYRLLSCGLSASACDVFRTVIMTLPYRPTPNLANLSTFMGMVHQLTMFGHYFYRCLGSYSPTGLAFTELQKILTRASAEQTERNPWRHPGISDIPLRWKISRALAFFVPPAPINTLQRVYAALPSQLMRAIFEISVKTTWGGAVPANLARDIDTGPNTQHISSTPPPTLKDVETYCQGLRVGDTEYDEDIVRSPLFADAFTKSHLLPILREVLENRLQKNRALFQIRWLIIFAAEAATGLIPARRPLARAYFHIMDILEERHSQDALYNLLDCIQELFTHIRQAVPDAQCPHAFLQSLFVFQFRPFVLKHQQGVTLFLDGLQTSLPPVISLANLGDKLCRLEFEYDSEGDFVRVPVAPPEQPPHVHLSHFKKTIQTIEQATREATVAMTTIAKPIYPAYIRLLQRLEYLNRLNHHILRIPFPQDALSELQETYLAAFARLTKLAADAANTCSYSLTKYFGVLFQHQLVPTAIVKKLLHFDEAKDTTEAFLQSLAQPVVQGQRQGAAGGSGVLTQKELELLNKINPQFTDAQANIPPSIKRSYSNKYDVPEVSVDWETYSRSAFEAPDDELRFVPLTLAGLRKLFVE
# modifications: N-terminal GST fusion and C-terminal FLAG tag are not carried by the letters
# notes: also called GST-tagged Orf63; purified GST-Orf63 protein; not shown: N-terminal GST of the pGex5p-1 vector with its protease-site linker; C-terminal FLAG tag
# B2: GST-Orf63: purified GST-tagged Orf63 fusion protein (protein)
# chain: B1 chain
# modifications: left off: a dimerising Fc or GST; small tags and cut ends
# notes: purified GST-tagged Orf63 fusion protein
# Legend:
# [1] = molecular target: T1, human NLRP1 (full-length) (human, UniProt Q9C000 1-1473, myc or V5 epitope tags in some assays (letters not given, left out); 35S-methionine label in the GST binding assay); assay: GST binding assay on glutathione beads with in vitro translated 35S-labeled protein, phosphorimager
# T1 construct: also called NLRP1-myc; NLRP1-V5
# T1 sequence: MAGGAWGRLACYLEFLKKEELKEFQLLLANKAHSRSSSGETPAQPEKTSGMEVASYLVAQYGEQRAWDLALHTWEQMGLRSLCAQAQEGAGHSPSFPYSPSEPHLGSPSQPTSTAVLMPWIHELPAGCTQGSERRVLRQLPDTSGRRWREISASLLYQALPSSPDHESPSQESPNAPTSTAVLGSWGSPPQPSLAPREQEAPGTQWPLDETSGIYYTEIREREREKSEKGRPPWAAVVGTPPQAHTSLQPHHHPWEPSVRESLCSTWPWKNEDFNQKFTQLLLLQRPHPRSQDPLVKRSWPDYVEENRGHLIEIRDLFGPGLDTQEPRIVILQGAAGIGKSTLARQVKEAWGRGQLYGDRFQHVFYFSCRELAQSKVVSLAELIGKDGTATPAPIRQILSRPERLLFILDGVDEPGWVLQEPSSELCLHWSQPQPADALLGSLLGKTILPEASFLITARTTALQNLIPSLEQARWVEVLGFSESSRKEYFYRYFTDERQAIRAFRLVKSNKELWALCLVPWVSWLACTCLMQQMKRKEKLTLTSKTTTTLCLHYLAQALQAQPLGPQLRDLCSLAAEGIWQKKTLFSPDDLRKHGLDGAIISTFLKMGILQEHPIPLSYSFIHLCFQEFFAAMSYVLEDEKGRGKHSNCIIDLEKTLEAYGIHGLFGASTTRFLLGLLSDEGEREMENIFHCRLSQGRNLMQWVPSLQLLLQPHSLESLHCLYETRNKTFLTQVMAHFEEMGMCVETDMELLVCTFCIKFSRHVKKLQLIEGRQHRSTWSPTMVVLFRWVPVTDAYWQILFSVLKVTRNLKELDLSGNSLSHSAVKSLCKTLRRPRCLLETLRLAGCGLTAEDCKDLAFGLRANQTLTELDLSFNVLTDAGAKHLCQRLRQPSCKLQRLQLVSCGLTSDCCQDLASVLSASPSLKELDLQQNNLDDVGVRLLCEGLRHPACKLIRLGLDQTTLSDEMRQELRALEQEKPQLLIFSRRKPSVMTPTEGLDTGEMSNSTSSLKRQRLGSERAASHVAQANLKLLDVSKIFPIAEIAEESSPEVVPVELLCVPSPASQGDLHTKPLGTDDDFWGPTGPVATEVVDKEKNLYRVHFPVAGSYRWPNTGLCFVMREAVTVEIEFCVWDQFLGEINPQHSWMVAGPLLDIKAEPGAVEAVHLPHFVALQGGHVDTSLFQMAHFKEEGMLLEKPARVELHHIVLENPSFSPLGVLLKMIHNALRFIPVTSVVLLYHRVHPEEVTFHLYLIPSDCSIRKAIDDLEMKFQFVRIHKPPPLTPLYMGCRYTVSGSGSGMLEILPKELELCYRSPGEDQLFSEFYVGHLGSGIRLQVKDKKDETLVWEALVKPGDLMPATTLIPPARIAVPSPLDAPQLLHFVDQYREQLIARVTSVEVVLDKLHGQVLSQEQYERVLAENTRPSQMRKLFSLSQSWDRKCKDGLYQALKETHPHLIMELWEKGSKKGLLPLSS
# NLRP1 = molecular target: T2, NLRP1 (Homo sapiens, UniProt Q9C000); assay: GST binding assay with 35S-methionine-labeled NLRP1; settings: purified GST-Orf63 on glutathione beads
# T2 construct: host or cells: cell-free coupled transcription/translation
# T2 sequence (Q9C000 1-1473): T1 sequence
# Method: (§1) In-vitro transcription/translation: [^35S]-methionine (Perkin-Elmer) labeled NLRP1, NLRP3 and control luciferase proteins were prepared using TnT T7 Quick Coupled Transcription/Translation System (Promega) according to manufacturer's instructions. pcDNA3-NLRP1 and pcDNA3-NLRP3 plasmids were used for the transcription/translation reaction.
# (§2) GST binding Assay: Expression and purification of GST fusion proteins were performed as previously described (29) and equal amounts of GST and GST-Orf63 were bound to glutathione beads (29). Equivalent amounts (1×10^5 cpm) of ^35S-methionine labeled NLRP1, NLRP3 and luciferase proteins were incubated with the GST and GST-Orf63 bound protein in NETN+ buffer plus protease inhibitors for an hour at 4° C. NETN+ buffer comprised of 20 mM Tris (pH 7.5), 100 mM NaCl, 1 mM EDTA, 0.1% NP-40, 1 mM DTT. The bound complexes were washed five times (5 minute washes) in NETN+ buffer. The samples were subjected to SDS-PAGE. The gel was fixed, dried and exposed to a phosphoimager.
# NLRP3 = molecular target: T3, NLRP3 (Homo sapiens, UniProt Q96P20); assay: GST binding assay with 35S-methionine-labeled NLRP3; settings: purified GST-Orf63 on glutathione beads
# T3 construct: primers designed to the open reading frames of procaspase-1, pro-IL-1beta, NOD1, NOD2, and NLRP3; expressed in transfected cells; host or cells: 293T
# T3 sequence (Q96P20 whole entry): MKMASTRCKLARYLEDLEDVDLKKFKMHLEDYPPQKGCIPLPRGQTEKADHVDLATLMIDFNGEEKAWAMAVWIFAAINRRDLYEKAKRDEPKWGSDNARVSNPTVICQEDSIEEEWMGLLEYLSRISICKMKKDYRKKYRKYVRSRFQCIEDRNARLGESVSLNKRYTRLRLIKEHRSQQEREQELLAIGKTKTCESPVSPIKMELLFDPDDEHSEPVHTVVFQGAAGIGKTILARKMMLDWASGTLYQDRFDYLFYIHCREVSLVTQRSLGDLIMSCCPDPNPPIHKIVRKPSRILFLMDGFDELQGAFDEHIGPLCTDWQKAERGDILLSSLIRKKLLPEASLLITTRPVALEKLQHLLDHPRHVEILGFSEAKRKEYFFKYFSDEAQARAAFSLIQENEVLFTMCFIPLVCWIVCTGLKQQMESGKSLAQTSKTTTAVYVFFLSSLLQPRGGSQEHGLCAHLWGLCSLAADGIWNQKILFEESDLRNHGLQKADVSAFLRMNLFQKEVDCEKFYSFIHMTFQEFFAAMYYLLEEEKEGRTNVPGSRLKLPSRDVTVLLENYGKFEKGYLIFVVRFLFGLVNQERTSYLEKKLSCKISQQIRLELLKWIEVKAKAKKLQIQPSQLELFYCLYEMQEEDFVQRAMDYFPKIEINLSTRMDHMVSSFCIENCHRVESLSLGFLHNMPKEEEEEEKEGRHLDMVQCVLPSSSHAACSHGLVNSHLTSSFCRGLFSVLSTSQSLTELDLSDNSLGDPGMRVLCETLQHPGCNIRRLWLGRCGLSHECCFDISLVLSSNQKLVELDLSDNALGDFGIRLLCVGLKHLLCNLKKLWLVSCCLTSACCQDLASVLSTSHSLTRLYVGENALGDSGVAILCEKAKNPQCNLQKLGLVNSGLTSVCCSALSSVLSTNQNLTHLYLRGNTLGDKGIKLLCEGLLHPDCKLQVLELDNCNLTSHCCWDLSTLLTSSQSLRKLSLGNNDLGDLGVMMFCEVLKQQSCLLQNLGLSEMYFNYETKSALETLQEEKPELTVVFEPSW
# Method: as §1, §2
Molecule,binding result [1],binding of 35S-methionine-labeled NLRP1 (NLRP1),binding of 35S-methionine-labeled NLRP3 (NLRP3)
B1,binds,–,–
B2,–,bound,bound
